The assay has as its target T1, PLK1PBD (human, UniProt P53350 370-603).
T1 construct: PLK1, human, residues 370-603 (Polo-box domain); Labelled PLK1PBD without a tag in the amylose pull-downs and the crystal structures; also called PLK1_(370-603); Polo-Box Domain; source: E. coli BL21 Gold (DE3), purified (HisTrap, SEC)
Kind of assay: crystal structure; PLK1PBD mixed with two times molar excess of phospho-peptide, sitting drop, 18°C. Particulars: both partners purified.

Non-standard residues stand in square brackets, D forms with d. No end group written: not given here. pT = C[C@@H](OP(=O)(O)O)[C@H](N)C(=O)O; pS = N[C@@H](COP(=O)(O)O)C(=O)O

The text below walks through data of publication doi:10.1101/2024.02.23.581399 (bioRxiv, 2024).

T1 sequence (P53350 370-603): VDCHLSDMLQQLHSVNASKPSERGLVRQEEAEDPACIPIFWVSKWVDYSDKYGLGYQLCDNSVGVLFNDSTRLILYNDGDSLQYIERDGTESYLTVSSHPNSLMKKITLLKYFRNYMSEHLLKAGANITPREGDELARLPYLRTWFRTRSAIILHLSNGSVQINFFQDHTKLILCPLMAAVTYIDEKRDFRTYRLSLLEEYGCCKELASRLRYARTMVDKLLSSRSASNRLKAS

B1: Mis18BP1_(72-82) phospho-peptide (KNIFQSTphMLTE) (peptide)
peptide: KNIFQS[pT]MLTE
notes: Mis18BP1, human, residues 72-82; also called T78ph peptide; Mis18BP1_(T78ph); source: synthetic peptide (Peptide Synthetics)
As to B1, the binding result was “binds”.

B2: Mis18α_(49-55) phospho-peptide (ASMWSSphM) (peptide)
peptide: ASMWS[pS]M
notes: also called S54ph peptide; Mis18α_(S54ph); source: synthetic peptide (Peptide Synthetics)
B2: the binding result is reported as “binds”.
